The values below come from US20260258410.

In general, Kd refers to the equilibrium constant for the complex coming apart.

The test system of the series is T1, ADAR2 R2D E488Q (dsRBD2 + deaminase domain) E488Q (Homo sapiens), P78563-2.
T1 sequence: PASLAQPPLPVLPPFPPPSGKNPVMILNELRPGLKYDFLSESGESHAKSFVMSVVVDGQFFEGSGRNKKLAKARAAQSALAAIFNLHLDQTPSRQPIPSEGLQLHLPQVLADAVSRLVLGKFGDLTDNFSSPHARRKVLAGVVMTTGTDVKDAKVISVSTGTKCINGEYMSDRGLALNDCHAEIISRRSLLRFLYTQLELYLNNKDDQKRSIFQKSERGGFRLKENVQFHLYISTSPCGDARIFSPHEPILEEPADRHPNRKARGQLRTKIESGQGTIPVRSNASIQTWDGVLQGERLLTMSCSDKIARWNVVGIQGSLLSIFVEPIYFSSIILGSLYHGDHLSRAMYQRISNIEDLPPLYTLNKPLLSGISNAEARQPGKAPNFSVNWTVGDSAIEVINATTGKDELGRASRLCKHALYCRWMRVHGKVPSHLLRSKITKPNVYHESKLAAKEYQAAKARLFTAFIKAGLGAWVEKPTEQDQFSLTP
The experiment in a line: EMSA. Particulars: 8-azanebularine at position 13 of SEQ 7; protein 0.25-256 nM.

Turning to “GCUCGCGAUGCGNGAGGGCUCUGAUAGCUACG / CGUAGCUAUCAGAGCCCCCCGGCAUCGCGAGC [32 bp GLI1 GG RNA with 8-azanebularine]”, the Kd was 6 nM.
